Measured values published in patent US10597674B2, “HPPD variants and methods of use” (BASF Agricultural Solutions Seed, US LLC, priority 2015, dated 2020).
Positions count from the first letter of the chain named. Numbers in names are those of the source.

B1: 45 (protein)
chain: MADLYENPMGLMGFEFIEFASPTPGTLEPIFEIMGFTKVATHRSKNVHLYRQGEINLILNNEPNSIASYFAAEHGPSVCGMAFRVKDSQKAYNRALELGAQPIHIDTGPMELNLPAIKGIGGAPLYLIDRFGEGSSIYDIDFVYLEGVERNPVGAGLKVIDHLTHNVYRGRMVYWANFYEKLFNFREARYFDIKGEYTGLTSKAMSAPDGMIRIPLNEESSKGAGQIEEFLMQFNGEGIQHVAFLTDDLVKTWDALKKIGMRFMTAPGDEYYEMLEGRLPDHGEPVDQLQARGILLDGSSVEGDKRLLLQIFSERLMGPVFFEFIQRKGDDGFGPDSFKVLFESVERDQVRRGVLTAD
modifications: mutant HPPD polypeptide
B2: 48 (protein)
chain: B1 chain with R315T, D331H
modifications: mutant HPPD polypeptide
B3: 50 (protein)
chain: B1 chain with R315T, D331P
modifications: mutant HPPD polypeptide
B4: 38 (protein)
chain: B1 chain with R315T, D330V
modifications: mutant HPPD polypeptide
B5: SEQ ID NO: 105: mutant HPPD polypeptide: R213K M264L P268G T270E E335P G336H N337S A340R S344Q I345M (protein)
chain: B1 chain with R213K, M264L, R315T, D336H, V340R, S344Q, V345M
modifications: mutant HPPD polypeptide
notes: mutant HPPD polypeptide: R213K M264L P268G T270E E335P G336H N337S A340R S344Q I345M
B6: SEQ ID NO: 8: mutant HPPD polypeptide: E335P G336D N337S A340V (protein)
chain: B1 chain with G268P, E270T, R315T, V345I
modifications: mutant HPPD polypeptide
notes: mutant HPPD polypeptide: E335P G336D N337S A340V
B7: SEQ ID NO: 54: mutant HPPD polypeptide: P268G T270E E335P G336D N337S K339A A340V I345V (protein)
chain: B1 chain with R315T, K339A
modifications: mutant HPPD polypeptide
notes: mutant HPPD polypeptide: P268G T270E E335P G336D N337S K339A A340V I345V
B8: SEQ ID NO: 5: mutant HPPD polypeptide: E335P N337S (protein)
chain: B1 chain with G268P, E270T, R315T, D336G, V340A, V345I
modifications: mutant HPPD polypeptide
notes: mutant HPPD polypeptide: E335P N337S
B9: SEQ ID NO: 101: mutant HPPD polypeptide: M264L P268G T270E T315R E335P G336D N337S A340V S344Q I345M (protein)
chain: B1 chain with M264L, S344Q, V345M
modifications: mutant HPPD polypeptide
notes: mutant HPPD polypeptide: M264L P268G T270E T315R E335P G336D N337S A340V S344Q I345M
B10: SEQ ID NO: 22: mutant HPPD polypeptide: E335P G336H N337S A340V (protein)
chain: B1 chain with G268P, E270T, R315T, D336H, V345I
modifications: mutant HPPD polypeptide
notes: mutant HPPD polypeptide: E335P G336H N337S A340V
B11: SEQ ID NO: 24: mutant HPPD polypeptide: E335P G336H N337S A340V I345V (protein)
chain: B1 chain with G268P, E270T, R315T, D336H
modifications: mutant HPPD polypeptide
notes: mutant HPPD polypeptide: E335P G336H N337S A340V I345V
B12: SEQ ID NO: 56: mutant HPPD polypeptide: P268G T270E E335P G336D N337S K339R A340V I345V (protein)
chain: B1 chain with R315T, K339R
modifications: mutant HPPD polypeptide
notes: mutant HPPD polypeptide: P268G T270E E335P G336D N337S K339R A340V I345V
B13: SEQ ID NO: 43: mutant HPPD polypeptide: R213K P268G T270E E335P G336D N337S A340V I345V (protein)
chain: B1 chain with R213K, R315T
modifications: mutant HPPD polypeptide
notes: mutant HPPD polypeptide: R213K P268G T270E E335P G336D N337S A340V I345V
B14: SEQ ID NO: 102: mutant HPPD polypeptide: M264L P268G (Table 2: R) T270E T315R E335P G336H N337S A340V S344Q I345M (protein)
chain: B1 chain with M264L, G268R, D336H, S344Q, V345M
modifications: mutant HPPD polypeptide
B15: SEQ ID NO: 34: mutant HPPD polypeptide: P268G T270E D330H E335P G336D N337S A340R I345K (protein)
chain: B1 chain with R315T, D330H, V340R, V345K
modifications: mutant HPPD polypeptide
notes: mutant HPPD polypeptide: P268G T270E D330H E335P G336D N337S A340R I345K

test system: HPPD polypeptides (wild-type SEQ ID NO:1 and mutants); test: not given; details: kapp in presence of 50 μM Cmpd. 1, normalised to kapp without inhibitor; low substrate concentration
Protocol: For the generation of crude HPPD polypeptide extract in micro titer plates (MTP) for the determination of residual activity in inhibition assays, cells were grown in 40 or 150 μl LB medium containing 1% Glucose (Merck, Darmstadt, Germany) and 100 μg/ml ampicillin in a standard 96 well plate (Thermo Fisher Scientific, Waltham, USA) incubated for about 18 h in a humidity incubator at 37° C.
30 μl of this starter culture were added to 600 μl LB medium containing 100 μg/ml ampicillin and 150 mM Hepes (Merck, Darmstadt, Germany) as inoculum for the expression culture in 96 well plates (2 ml deep wells; HJ Bioanalytik, Erkelenz, Germany) The plates were sealed by an aluminium foil, and cells were incubated for 5 h at 37° C. on a plate shaker at 750 rpm. The expression was induced by addition of IPTG in a final concentration of 1 mM followed by further sealed incubation for about 18 h at 30° C. on a plate shaker at 750 rpm.
Cells were harvested by centrifugation at 4° C., 2500 g for 15 min discarding the supernatant. Cell pellets were stored at −80° C. and lysed in 250 μl 1× BugBuster® (Merck, Darmstadt, Germany) in 140 mM Tris (pH 7.8), with 1:25000 diluted BNase® (Qiagen, Hilden, Germany) by incubation of the resuspended cells for 30 min at 4° C. and 1000 rpm. Lysates were clarified by centrifugation for 15 min at 4° C., 2500 g, and 150 μl supernatant were transferred in standard 96 well plate (Thermo Fisher Scientific, Waltham, USA) for subsequent testing in quadruplets.
The activity of HPPD polypeptides was determined in absence or presence of HPPD inhibitors using the coupled HPPD activity assay (FIG. 1).
For the determination of the residual activity, the apparent kinetic constant (kapp) of the determined substrate conversion was measured as kinetic changes in absorbance at 320 nm in a coupled assay, in that homogentisate (HGA) formed by HPPD from HPP is directly converted into the well absorbing molecule maleylacetoacetate (MAA) by a second enzyme homogentisate dioxygenase (HGD), applied in excess uniformly in all assays (see FIG. 1). The measurements were performed in 384 micro titer plates (Greiner Bio-One GmbH, Frickenhausen, Germany) by plate readers (Tecan infinite M1000 or M1000PRO, Tecan, Männedorf, Switzerland). The kcat/kM ratio of an enzymatic activity is proportional to the apparent kinetic constant kapp and is proportional to kcat/kM*[E] ([E]=enzyme concentration). […] As both kapp measurements in the presence and absence of inhibitor were performed by use of the identical enzyme sample, crude or purified, and thereby at the same enzyme concentration, the enzyme concentration eliminates from the calculation of residual activity and the ratio of both kapp directly indicates the change of kM due to the inhibition.

Compared with B1, B2 is higher in Residual activity: 39% for the first, 47% for the second.

First: B3
Second: B4
The Residual activity of the first is lower: 46% for the first, 78% for the second.

same assay, conditions: total change in signal in presence of 50 μM Cmpd. 1, normalised to that without inhibitor; low substrate concentration

First: B1
Second: B2
The Residual turnover of the first is lower: 68% for the first, 74% for the second.

Going from B3 to B4, the Residual turnover rises from 80% to 94%.

test system: transgenic soybean T0 events; test: Additional greenhouse trials of T0 soybean events, leaf damage score 0-100 as percentiles; format: in vivo; details: Cmpd. 1 300 g AI/ha, five days; 75th minus 25th percentile
From the text: In additional greenhouse trials, 21 to 94 independent T0 soybean events per construct containing an exemplary mutant HPPD polypeptide were sprayed with the HPPD inhibitor herbicide Cmpd. […] Five days after the application, the leaf damaged area due to the HPPD inhibitor herbicide is scored in a scale from 0 (no damage) to 100 (complete bleaching). Under those conditions, the wild-type plants were completely bleached and their damage scores were in the 95-100 range.
Table 9 presents the distribution of the HPPD inhibitor herbicide damage score data as percentile for exemplary mutant HPPD inhibitor herbicide tolerant polypeptides (SEQ ID NOs). The percentiles normalize ranks of the damage score from an individual plant in a population. […] The median is the 50th percentile. Half the values had higher damage scores; half had lower damage scores. […] The difference between the 75th and 25th percentile is called the interquartile range and a marker to quantify scattering in the population. All constructs had only one single cassette insertion in the soybean genome.
In Table 9, the constructs were ranked based on injury scores according to the 75th percentile, from smallest to highest score. All exemplary HPPD polypeptide variants are better in all percentile analyses than the prior art mutant HPPD polypeptide (WO2014/043435) corresponding to SEQ ID NO:2 in this invention. The scoring of the prior art mutant HPPD polypeptide (WO2014/043435) corresponding to SEQ ID NO:2 in this invention is listed in the bottom row of Table 9.

Going from B5 to B6, the “leaf damage score, Interquartile range” value falls from 10.0 to 6.3.

B7 and B8 are the same in “leaf damage score, Interquartile range” value: 10.0 for the first, 10.0 for the second.

Compared with B9, B10 is lower in “leaf damage score, Interquartile range” value: 10.0 for the first, 5.0 for the second.

B11 and B12 are the same in “leaf damage score, Interquartile range” value: 10.0 for the first, 10.0 for the second.

Going from B13 to B14, the “leaf damage score, Interquartile range” value rises from 10.0 to 12.0.

For B15, the “leaf damage score, Interquartile range” value was 10.0.

same assay, conditions: Cmpd. 1 300 g AI/ha, five days; scale 0 (no damage) to 100 (complete bleaching)

Going from B5 to B6, the “leaf damage score, 25th percentile” value rises from 5.0 to 10.0.

B7 and B8 are the same in “leaf damage score, 25th percentile” value: 10.0 for the first, 10.0 for the second.

First: B9
Second: B10
The “leaf damage score, 25th percentile” value of the first is lower: 5.0 for the first, 10.0 for the second.

B11 and B12 are the same in “leaf damage score, 25th percentile” value: 10.0 for the first, 10.0 for the second.

Going from B13 to B14, the “leaf damage score, 25th percentile” value falls from 10.0 to 8.0.

In the case of B15, the “leaf damage score, 25th percentile” value is reported as 10.0.

same assay, conditions: Cmpd. 1 300 g AI/ha, five days; scale 0-100

First: B5
Second: B6
The “leaf damage score, 75th percentile” value of the first is lower: 15.0 for the first, 16.3 for the second.

B7 and B8 are the same in “leaf damage score, 75th percentile” value: 20.0 for the first, 20.0 for the second.

B9 and B10 are the same in “leaf damage score, 75th percentile” value: 15.0 for the first, 15.0 for the second.

B11 and B12 are the same in “leaf damage score, 75th percentile” value: 20.0 for the first, 20.0 for the second.

B13 and B14 are the same in “leaf damage score, 75th percentile” value: 20.0 for the first, 20.0 for the second.

In the case of B15, the “leaf damage score, 75th percentile” value is reported as 20.0.

Compared with B5, B6 is lower in “leaf damage score, 90th percentile” value: 70.0 for the first, 38.5 for the second.

Going from B7 to B8, the “leaf damage score, 90th percentile” value rises from 62.5 to 72.0.

First: B9
Second: B10
The “leaf damage score, 90th percentile” value of the first is higher: 49.0 for the first, 34.5 for the second.

Going from B11 to B12, the “leaf damage score, 90th percentile” value rises from 35.0 to 65.0.

Compared with B13, B14 is lower in “leaf damage score, 90th percentile” value: 67.0 for the first, 45.0 for the second.

With B15 the “leaf damage score, 90th percentile” value was 70.0.

B5 and B6 are the same in “leaf damage score, Median” value: 10.0 for the first, 10.0 for the second.

Compared with B7, B8 is higher in “leaf damage score, Median” value: 10.0 for the first, 15.0 for the second.

B9 and B10 are the same in “leaf damage score, Median” value: 10.0 for the first, 10.0 for the second.

Compared with B11, B12 is higher in “leaf damage score, Median” value: 10.0 for the first, 15.0 for the second.

Compared with B13, B14 is lower in “leaf damage score, Median” value: 15.0 for the first, 10.0 for the second.

With B15 the “leaf damage score, Median” value was 15.0.
